According to publication PMC5618700:

Target: the molecule itself
Test: SDS-PAGE without reducing agent (oligomerization assay) with Western blot; PLY 0.4 uM in solution without cholesterol or membranes, incubated 1 hr at 37°C with 0, 2.18, 4.36 or 8.73 uM EGCG (control with DMSO only); 5x loading buffer without β-ME, 10 min at 50°C; 6% SDS-PAGE, Western blot; oligomerization reduced by EGCG in a concentration-dependent manner

B1: Pneumolysin (PLY), wild type, His-tagged (natural protein, Streptococcus pneumoniae D39, UniProt Q04IN8 1-471, looked up)
chain: MANKAVNDFILAMNYDKKKLLTHQGESIENRFIKEGNQLPDEFVVIERKKRSLSTNTSDISVTATNDSRLYPGALLVVDETLLENNPTLLAVDRAPMTYSIDLPGLASSDSFLQVEDPSNSSVRGAVNDLLAKWHQDYGQVNNVPARMQYEKITAHSMEQLKVKFGSDFEKTGNSLDIDFNSVHSGEKQIQIVNFKQIYYTVSVDAVKNPGDVFQDTVTVEDLKQRGISAERPLVYISSVAYGRQVYLKLETTSKSDEVEAAFEALIKGVKVAPQTEWKQILDNTEVKAVILGGDPSSGARVVTGKVDMVEDLIQEGSRFTADHPGLPISYTTSFLRDNVVATFQNSTDYVETKVTAYRNGDLLLDHSGAYVAQYYITWDELSYDHQGKEVLTPKAWDRNGQDLTAHFTTSIPLKGNVRNLSVKIRECTGLAWEWWRTVYEKTDLPLVRKRTISIWGTTLYPQVEDKVEND
notes: no cleavage of the tag is described; also called PLY-WT
B1: binds.
